Assay results published in FireProtDB (doi:10.1016/j.bpc.2005.09.016).
Where “and” joins values, the source holds several entries; their conditions need not be identical. Identical values can stand only once.

Conditions: Aspergillus oryzae (strain ATCC 42149 / RIB 40), 25 °C, CD, Glycine hydrochloride 0.05 M, reversible: Yes, whole UniProt chain shown

B1: Guanyl-specific ribonuclease T1 wild type, P00651 (protein)
chain: MMYSKLLTLTTLLLPTALALPSLVERACDYTCGSNCYSSSDVSTAQAAGYQLHEDGETVGSNSYPHKYNNYEGFDFSVSSPYYEWPILSSGDVYSGGSPGADRVVFNENNQLAGVITHTGASGNNFVECT
For B1, which denaturant m value (pH 3, Urea) is on record?
Its denaturant m value is 1.57 kcal/mol/M and 1.73 kcal/mol/M and 2.04 kcal/mol/M.

What about the “denaturant midpoint (higher = more stable)” value (from here on “denaturant midpoint”) (pH 3, Urea) of the same protein?
Its value is 3.8 M and 3.2 M and 3.1 M.

And the unfolding free energy (pH 3, Urea)?
Its unfolding free energy is 6.01 kcal/mol and 5.54 kcal/mol and 6.36 kcal/mol.

And the “denaturant midpoint” value (pH 5.5, GdnHCl)?
Its value is 4.3 M and 3.7 M.

What about the unfolding free energy (pH 5.5, GdnHCl) of the same protein?
The unfolding free energy was 9.29 kcal/mol and 9.48 kcal/mol and 9.37 kcal/mol.

And the “denaturant midpoint” value (pH 6, GdnHCl)?
The value was 3.8 M and 3.7 M.

What about the unfolding free energy (pH 6, GdnHCl) of the same protein?
Its unfolding free energy is 10.2 kcal/mol.
